Experimental data published in the supplement of paper PMC7125110.
± gives the standard error. Fewer inactive variants are shown than the library holds.

B1: glmS ribozyme (parent)
chain: AUAAAAGCGCCAGAACUACAGAAAUGUAGUUGACGAGGAGGAGGUUUAUCGAAUUUUCGGCGGAUGCCUCCAAA

Variants of: B1
Assay: self-cleavage kobs at 2500 uM GlcN6P; higher = faster cleavage; RNA array
Conditions: with glucosamine-6-phosphate
Outline: (§1)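 Glucosamine-6-phosphate in HEPES/KCl/Mg(OAc)2 buffer, at 40 μM to 10 mM, was flowed over barcoded ribozyme variants transcribed in situ by E. coli RNA polymerase on sequenced MiSeq chips. Tracking was through a hybridised Cy3 probe at 37 °C. kobs, kcat and KM came from exponential decay fits and weighted Michaelis–Menten fits of normalised per-tile medians.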

Variant | self-cleavage kobs at 2500 uM GlcN6P [s⁻¹]
A15C A39U C50G A53G | < 1e-05
A33U G37C C70G | < 1e-05
A6G C11G U45A C50A | < 1e-05
U46G C58U C68G | 0.000337 ± 0.00012
C34A G37A G43U | < 1e-05
C10U G51U G60U | < 1e-05
A6C A12G A15G | < 1e-05
A14C U31C A36G G38C G41U G51U | < 1e-05
A33C G41C C67G | < 1e-05
A15C U49G C58G | < 1e-05
A39U U46G C70A | 0.000101 ± 2.8e-05
C16G U30A A42C U69G | 0.000262 ± 6.8e-05
A6U C8U C16U U30C G44U U55A C67G | < 1e-05
G44U U56C U57A | < 1e-05
G38C A39U A53G U65C | < 1e-05
G41C A42U G60C G62C | < 1e-05
A15U G44A G51A A53U | < 1e-05
U31C U56G C67A | 6.88e-05 ± 1.8e-05
G9A G35C A64C C71U | < 1e-05
A12G C34U A52U | < 1e-05
A15C C34G U57A | < 1e-05
C50G U57C C71G | 0.000255 ± 0.00012
A14C A39G C58G | 5e-05 ± 1.9e-05

Variant | self-cleavage kobs at 2500 uM GlcN6P [s⁻¹]
A15U U30G C68G | 4.51e-05 ± 1.8e-05
G29U G44A U46C U65C | < 1e-05
C8G A14G G32U A64U | < 1e-05
C50U C70U C71A | 0.000152 ± 4e-05
G7A G13A U30C C34U C70U | < 1e-05
G32A C34G C71U | < 1e-05
A42G G44C C58A C68U | < 1e-05
C34U G40A G41C A48C A52G | < 1e-05
C34U U47G G51U | < 1e-05
G7U A33U U69G | 0.000542 ± 0.00021
A6U U47A A53G G59U | < 1e-05
C16U U46C C61G | < 1e-05
C58A U65G C70U | 6.2e-05 ± 2.7e-05
G38A C50A A64C | < 1e-05
C10A G66A C68A | 5.96e-05 ± 2.6e-05
A6G G32U U45G | < 1e-05
G37A U49G A52U G59A | < 1e-05
A33G C34A U46A C61A | < 1e-05
C10G G41C G51A C61G | < 1e-05
C10U U45A | 2.72e-05 ± 1.3e-05
A15C A64G C68A | < 1e-05
G40C U47A G62C | < 1e-05
A48C C61U G66A | < 1e-05

Variant | self-cleavage kobs at 2500 uM GlcN6P [s⁻¹]
A6C G9U C70A | < 1e-05
A12G A14C A15C | 6.38e-05 ± 2.6e-05
A14C C34G G62U | < 1e-05
C8A C10U G35A G38A C68U | 4.94e-05 ± 1.7e-05
G7U G9C U47A U56G G59U C70A | < 1e-05
A12U A48U C58U | < 1e-05
A6U A52G U69C | 5.25e-05 ± 2.2e-05
G7U U31C G32C G35C A36C C71U | < 1e-05
C11A C16U U54G G59A | 0.000138 ± 3e-05
A39G G43C A52C | < 1e-05
U46C G60U C70U | < 1e-05
A39G U55C A64G | 0.00694 ± 0.0013
G38A G62A C67G | < 1e-05
A14G U45A U69A | 0.000801 ± 0.00024
G40U G43U C50G | < 1e-05
C11U C16G C70G | 5.75e-05 ± 2.7e-05
G44C U46G G63A | < 1e-05
A42U G43U U46A C70U | 6.44e-05 ± 2.4e-05
G37A A39C G40C G41A U45C G51U C58G | < 1e-05
A12C U46A C71A | 6.86e-05 ± 2.4e-05
A15U G32A A39U C71U | 0.000236 ± 0.00011
G32U C34U A42G U46C A64C | < 1e-05
C10G C34A A52U | < 1e-05

Variant | self-cleavage kobs at 2500 uM GlcN6P [s⁻¹]
G38U U45A C71A | < 1e-05
C34A C68G | < 1e-05
C10U C11A G41A U55C C58G | < 1e-05
U31A A39U C70G | 0.000232 ± 7.5e-05
G7U G35U U54C G60A C67G C68A | 5.54e-05 ± 9.5e-06
A14G G41A G60U | < 1e-05
G32C C58U U65G | < 1e-05
C8U C34U G41U | < 1e-05
G37C G38U G51A U54G | < 1e-05
A15C A64C C68U | < 1e-05
G37A G62C A64U | < 1e-05
C34A G35A C67G C68A C71A | 0.000155 ± 6.4e-05
G7A C16U U47C C58G | < 1e-05
A6C U31A A48C | < 1e-05
A15C A42G U56A G60U | < 1e-05
U30C G35C U49A | < 1e-05
A39G U57A C61A | < 1e-05
C10U G35C G51U U56G G62U | < 1e-05
A6U A14U A33G C61U | < 1e-05
G7U C11U G51C | < 1e-05
A52U U56A C58G | < 1e-05
C8G G9C G41A G60C C61A C68G | < 1e-05
G29C C61G G62A C70G | 0.000307 ± 0.00012

Variant | self-cleavage kobs at 2500 uM GlcN6P [s⁻¹]
A6G G13C U65A U69C | < 1e-05
A6U G32U U57G | < 1e-05
A39C A42C G66A | 0.00014 ± 4.5e-05
A14U G40U G60A C70G C71U | < 1e-05
C8G G9A A14U U31G A39C U47A A64G C70U | < 1e-05
G13U U47G U54A G62A | < 1e-05
C11A U56A C67G | 5.5e-05 ± 1.8e-05
C10U A36C G40U G59U C67G | < 1e-05
C10G G35A G66A | < 1e-05
A14U G32C A52U | < 1e-05
C8A A12U G44U | < 1e-05
C8G G32A U54G | < 1e-05
C8A A15G G32U G44U C67A | < 1e-05
A15C A33C C61U G66A | < 1e-05
C8G G29U A36C A48G C70U | < 1e-05
G7U U55A U56A | < 1e-05
A12C A39G U49C | < 1e-05
A6C C34G C50G | 4.66e-05 ± 2.1e-05
G13C A15U G41U A42G G43C | < 1e-05
C16U A39U G44U C67A | 0.0154 ± 0.0045
C16A A33C G40A U56C C67U | < 1e-05
A6U C16G A36U G41U G43C | < 1e-05
A14G A15U U46C | 0.00169 ± 0.00048

Variant | self-cleavage kobs at 2500 uM GlcN6P [s⁻¹]
A33G G35A G44U G59C C70U | < 1e-05
C10G G13C A42U A52C | < 1e-05
C11A C34G A36U G40A A52G A53U | < 1e-05
A33C G51A U54C | < 1e-05
A64G U65C | 8.88e-05 ± 2.5e-05
A6U C10A C70A | 0.000332 ± 0.00011
C10A G29C U55A C70G | 9.79e-05 ± 2.6e-05
G32C G35C U56C | < 1e-05
A6C G13C G29A U30G G32U A33G C34A C50U | < 1e-05
C8U C11U U30A A52C U69G | < 1e-05
A12G C16U G29A G40A A42U U45G | 8.49e-05 ± 2.3e-05
C34U G37A A39C | < 1e-05
C16U A36U G38C G60C | < 1e-05
G40A G44A | 4.13e-05 ± 1.2e-05
U31C A42U U56C G66C | < 1e-05
A39C U57A C67G | < 1e-05
A42G A52G C67A | 0.000326 ± 8.1e-05
U49A U54G | 4.22e-05 ± 1.9e-05
A6U G9A A42C | < 1e-05
G38C G41U A42G | < 1e-05
A12U A48U C70G | 0.000115 ± 5e-05
G29U G37A G38C G60U | < 1e-05
C10U G29U U57C | < 1e-05

Variant | self-cleavage kobs at 2500 uM GlcN6P [s⁻¹]
A12G G21U U47G U65A | 6.16e-05 ± 1.7e-05
A33C A39G C70A | < 1e-05
U30A G40C A53G U56C | < 1e-05
G7C G35C A48C C58U | < 1e-05
A15U G29C C50U | < 1e-05
U30G U46G C58U | < 1e-05
A12G G51U U56G | < 1e-05
A14U G32U G44C G62U C71A | < 1e-05
U30G G32U G35A A53G | < 1e-05
C10U C11G U57A | < 1e-05
G35U U56A C71U | < 1e-05
G51U G59C G66U | < 1e-05
C8U G9U G13A G37A G41A | < 1e-05
C16U U30C C50A | < 1e-05
G13U A48G U57G | < 1e-05
A6C A15U G35A G40U | < 1e-05
G13A G35A G44A | < 1e-05
C11U A15C A48G U55A | < 1e-05
A6G C61A C71U | < 1e-05
G9A U30A | < 1e-05

Variants of: B1
Assay: self-cleavage kobs at 10000 uM GlcN6P; higher = faster cleavage; RNA array
Conditions: with glucosamine-6-phosphate
Outline: as §1

Variant | self-cleavage kobs at 10000 uM GlcN6P [s⁻¹]
C10U G51U G60U | < 1e-05
A39U U46G C70A | 0.000162 ± 3.2e-05
C50G U57C C71G | 9.26e-05 ± 3.1e-05
A14C A39G C58G | 8.88e-05 ± 1.6e-05
C10U U45A | 2.12e-05 ± 8.6e-06
A6C G9U C70A | < 1e-05
C11U C16G C70G | 0.000142 ± 4.4e-05
A15U G32A A39U C71U | 0.000208 ± 6.3e-05
C10G C34A A52U | < 1e-05
A6C U31A A48C | < 1e-05
C10U A36C G40U G59U C67G | < 1e-05
C8A A15G G32U G44U C67A | < 1e-05
A64G U65C | 0.000113 ± 1.6e-05
A12G C16U G29A G40A A42U U45G | 8.82e-05 ± 1.6e-05
C10U C11G U57A | < 1e-05
G51U G59C G66U | < 1e-05
